Reference: IntAct's records for PubMed 26711270

B1: Protein ecdysoneless homolog (Homo sapiens), O95905 (parent)
chain: MEETMKLATMEDTVEYCLFLIPDESRDSDKHKEILQKYIERIITRFAPMLVPYIWQNQPFNLKYKPGKGGVPAHMFGVTKFGDNIEDEWFIVYVIKQITKEFPELVARIEDNDGEFLLIEAADFLPKWLDPENSTNRVFFCHGELCIIPAPRKSGAESWLPTTPPTIPQALNIITAHSEKILASESIRAAVNRRIRGYPEKIQASLHRAHCFLPAGIVAVLKQRPRLVAAAVQAFYLRDPIDLRACRVFKTFLPETRIMTSVTFTKCLYAQLVQQRFVPDRRSGYRLPPPSDPQYRAHELGMKLAHGFEILCSKCSPHFSDCKKSLVTASPLWASFLESLKKNDYFKGLIEGSAQYRERLEMAENYFQLSVDWPESSLAMSPGEEILTLLQTIPFDIEDLKKEAANLPPEDDDQWLDLSPDQLDQLLQEAVGKKESESVSKEEKEQNYDLTEVSESMKAFISKVSTHKGAELPREPSEAPITFDADSFLNYFDKILGPRPNESDSDDLDDEDFECLDSDDDLDFETHEPGEEASLKGTLDNLKSYMAQMDQELAHTCISKSFTTRNQVEPVSQTTDNNSDEEDSGTGESVMAPVDVDLNLVSNILESYSSQAGLAGPASNLLQSMGVQLPDNTDHRPTSKPTKN

Variants of: B1
Conditions: with pihd1_human PIH1D1, Q9NWS0
pihd1_human PIH1D1, Q9NWS0, sequence (Q9NWS0 whole entry): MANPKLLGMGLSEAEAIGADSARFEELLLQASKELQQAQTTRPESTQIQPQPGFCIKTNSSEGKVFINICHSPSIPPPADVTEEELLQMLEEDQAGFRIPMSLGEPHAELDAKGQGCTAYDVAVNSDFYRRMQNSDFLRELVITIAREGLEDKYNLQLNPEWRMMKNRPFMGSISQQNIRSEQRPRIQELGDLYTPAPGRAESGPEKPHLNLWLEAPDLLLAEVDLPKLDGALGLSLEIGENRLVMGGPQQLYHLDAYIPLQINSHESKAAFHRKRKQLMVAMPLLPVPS

Effect of a mutation on the interaction, disrupting interaction:
S503A;S505A;S518A;S572A;S579A;S584A
S503D;S505D;S518D;S572D;S579D;S584D
S503A;S505A;S518A
